The target in the series is T1, KHSRP130-503 (four KH domains) (Homo sapiens, UniProt Q92945 130-503).
T1 sequence: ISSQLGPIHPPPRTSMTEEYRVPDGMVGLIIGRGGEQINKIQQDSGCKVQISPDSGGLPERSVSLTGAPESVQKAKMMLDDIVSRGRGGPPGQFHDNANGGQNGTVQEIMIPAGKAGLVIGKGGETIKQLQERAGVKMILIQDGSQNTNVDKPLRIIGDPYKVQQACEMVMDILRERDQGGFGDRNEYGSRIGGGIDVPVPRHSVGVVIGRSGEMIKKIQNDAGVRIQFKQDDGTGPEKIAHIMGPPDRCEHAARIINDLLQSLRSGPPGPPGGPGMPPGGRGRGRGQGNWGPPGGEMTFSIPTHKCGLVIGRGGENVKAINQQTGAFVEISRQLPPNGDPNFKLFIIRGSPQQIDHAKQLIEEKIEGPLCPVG
Nature of the series: SPR; 25 C, single-cycle kinetics; SPR at 25 C, 1-20 uM G4 over immobilized protein (buffer not in the material); NMR at 25 C (298 K), protein in 5 mM KH2PO4/K2HPO4 pH 7.0, 20 mM KCl. The note with it: protein: recombinant, tags: N-terminal His-tag (pET-28a), TEV-cleaved.

B1: c-Kit1 (structured_DNA)
DNA: AGGGAGGGCGCTGGGAGGAGGG
In general, Kd refers to a measure of binding affinity in units of concentration. As to B1, for the setting “parallel G4, intramolecular”, the Kd stood at 190 ± 90 nM.

B2: c-Kit2 (structured_DNA)
DNA: CGGGCGGGCGCTAGGGAGGGT
On to B2, for which the Kd (parallel G4, intramolecular) worked out at 56 ± 8 nM.

B3: c-Myc (structured_DNA)
DNA: TGAGGGTGGGTAGGGTGGGTAA
For B3, the Kd (parallel G4, intramolecular) came out at 130 ± 25 nM.

B4: Bcl-2 (structured_DNA)
DNA: GGGCGCGGGAGGAATTGGGCGGG
Take B4: the dissociation constant (Kd) (hybrid G4, intramolecular) amounted to 2000 ± 980 nM.

B5: mTel24 (structured_DNA)
DNA: TTGGGTTAGGGTTAGGGTTAGGGA
B5: the Kd (hybrid G4, intramolecular) worked out at 1470 ± 480 nM.

The values above are taken from article PMC11848572, “Expanding the Functions of KHSRP Protein: Insights into DNA G‐Quadruplex Binding”.
